Protein stability index data for 36 sequences are collected here from the supplement of paper PMC9732359.

± gives the uncertainty stated by the source.

The series is described as follows: protein stability index of a GFP-peptide fusion (yeast GPS) (PSI 1-4); higher = more stable; sorted into four equal gates, so the index is relative within each strain. The essentials: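 Yeast carrying a pooled library were grown to mid-log phase in leucine-free medium. Each library plasmid expresses Cherry and has a tiled 17-residue yeast protein peptide fused downstream of GFP. Cells were sorted into four equal gates by GFP/Cherry ratio, and plasmids from each gate were PCR-amplified, Illumina-sequenced and assigned to strains by barcode. Summing, across gates, the read frequency times the gate number gave each peptide's protein stability index.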

Turning to LCLMTWKEVMFDPSKDV [CDC53], the protein stability index was 2.52 ± 0.079 (doa10∆), 2.72 ± 0.068 (pdr5∆), 2.83 ± 0.097 (san1∆) and 3.09 ± 0.073 (ubr1∆).

In the case of ILDFGPGGASGLGVLTH [FAS1], the protein stability index is, setting by setting: (doa10∆) 2.82 ± 0.082; (pdr5∆) 2.74 ± 0.092; (ubr1∆) 2.84 ± 0.2.

As to THQSPPPPPQQSQPIAN [SNF5], the protein stability index (doa10∆) turned out to be 3.01 ± 0.057, the protein stability index (pdr5∆) was 3.07 ± 0.043, the protein stability index (san1∆) is 2.98 ± 0.04 and the protein stability index (ubr1∆) amounted to 2.94 ± 0.046.

As to GQEYPRIIGLSATLPNY [BRR2], the protein stability index runs as follows: (doa10∆) 1.9 ± 0.047; (pdr5∆) 2.2 ± 0.044; (san1∆) 1.96 ± 0.057; (ubr1∆) 1.81 ± 0.046.

Regarding KSAEGNNIDQSLILKES [YAR002W/NUP60], the protein stability index reads like this: (doa10∆) 2.82 ± 0.095; (pdr5∆) 2.86 ± 0.063; (san1∆) 2.61 ± 0.096; (ubr1∆) 3 ± 0.078.

AMQYVCGDSIICNTLNI [SMC1]: the protein stability index by setting is: (doa10∆) 1.57 ± 0.072; (pdr5∆) 1.65 ± 0.065; (san1∆) 1.5 ± 0.1; (ubr1∆) 1.51 ± 0.071.

In turn, LQDELHKVSSQSTNLNR [YCS4] yielded a protein stability index (doa10∆) of 2.97 ± 0.061, a protein stability index (pdr5∆) of 3.06 ± 0.068, a protein stability index (san1∆) of 3.05 ± 0.045 and a protein stability index (ubr1∆) of 2.87 ± 0.053.

For the sequence SRKETSRTATWLKNKFA [BRR2], the protein stability index runs as follows: (doa10∆) 1.37 ± 0.057; (pdr5∆) 1.29 ± 0.041; (san1∆) 1.67 ± 0.11; (ubr1∆) 1.49 ± 0.063.

In the case of GVTKGYKYKMRYVYAHF [RPL9A], the protein stability index (doa10∆) amounted to 2.73 ± 0.14, the protein stability index (san1∆) was 3.12 ± 0.12 and the protein stability index (ubr1∆) was 2.87 ± 0.16.

For the sequence PLPLDLNVQVWHIEETG [ITC1], the protein stability index was determined as 1.87 ± 0.063 (doa10∆), 2.17 ± 0.059 (pdr5∆), 2.18 ± 0.089 (san1∆) and 2.17 ± 0.071 (ubr1∆).

Regarding RGYFITQEEVELPLEDF [RPB5], the protein stability index stood at 3.46 ± 0.19 (doa10∆), 3.01 ± 0.16 (pdr5∆), 3.28 ± 0.15 (san1∆) and 3.14 ± 0.086 (ubr1∆).

For the sequence MVMAGSKGSFINIAQMS [RPO21], the protein stability index by setting is: (doa10∆) 1.43 ± 0.054; (pdr5∆) 1.67 ± 0.049; (san1∆) 1.25 ± 0.083; (ubr1∆) 1.42 ± 0.05.

With MKVKADRDESSPYAAML [RPS14A], the protein stability index is, setting by setting: (doa10∆) 3.37 ± 0.1; (pdr5∆) 3.29 ± 0.065; (san1∆) 3.23 ± 0.048; (ubr1∆) 3.27 ± 0.068.

As to AIYNNPTRIRTKSSKEF [RRI2], the protein stability index runs as follows: (doa10∆) 1.41 ± 0.068; (pdr5∆) 1.67 ± 0.06; (san1∆) 1.68 ± 0.1; (ubr1∆) 1.55 ± 0.061.

For the sequence GDYDSHDISRYVRAKFL [PRP8], the protein stability index came to 2.08 ± 0.077 (doa10∆), 2.11 ± 0.086 (pdr5∆), 1.66 ± 0.16 (san1∆) and 1.43 ± 0.055 (ubr1∆).

PQWKRHLEEYGYLIQVL [YCS4] displayed a protein stability index (doa10∆) of 2.27 ± 0.052, a protein stability index (pdr5∆) of 2.73 ± 0.057, a protein stability index (san1∆) of 2.02 ± 0.095 and a protein stability index (ubr1∆) of 2.5 ± 0.047.

AVLSYYKVDAEGKVTKL [RPS31] came in with a protein stability index (doa10∆) of 2.98 ± 0.11, a protein stability index (pdr5∆) of 2.99 ± 0.13, a protein stability index (san1∆) of 3.03 ± 0.083 and a protein stability index (ubr1∆) of 3.27 ± 0.065.

For LKLSQAFGSSATDISGE [YJR042W/NUP85], the protein stability index was 2.76 ± 0.065 (doa10∆), 2.05 ± 0.067 (pdr5∆), 2.56 ± 0.059 (san1∆) and 2.14 ± 0.048 (ubr1∆).

As to GNNPSWVNNPKKRFTPH [YDL088C/ASM4], the protein stability index (doa10∆) was 3.42 ± 0.23.

With NSYQPSPFFVLDEVDAA [SMC1], the protein stability index (doa10∆) turned out to be 2.6 ± 0.12, the protein stability index (pdr5∆) amounted to 2.57 ± 0.12, the protein stability index (san1∆) turned out to be 2.49 ± 0.12 and the protein stability index (ubr1∆) was 2.77 ± 0.087.

Take LVILKPDLNIDRNNSTN [SIN4]: the protein stability index is 2.73 ± 0.057 (doa10∆), 2.23 ± 0.064 (pdr5∆), 2.56 ± 0.065 (san1∆) and 2.67 ± 0.041 (ubr1∆).

Turning to ICNPVHKHREARGLTAT [RPL15B], the protein stability index runs as follows: (doa10∆) 2.81 ± 0.078; (pdr5∆) 2.52 ± 0.082; (san1∆) 2.59 ± 0.092; (ubr1∆) 2.42 ± 0.062.

As to HNSHLSLNYKFTTNKSK [SRP21], the protein stability index reads like this: (doa10∆) 2.46 ± 0.073; (pdr5∆) 2.07 ± 0.052; (san1∆) 2.38 ± 0.076; (ubr1∆) 2.41 ± 0.05.

In the case of LEQLAQHTTESDNISRK [RPB2], the protein stability index reads like this: (doa10∆) 3.33 ± 0.12; (pdr5∆) 3.35 ± 0.12; (san1∆) 3.01 ± 0.076; (ubr1∆) 3.11 ± 0.13.

Take EFEKKLQETLNKSTSSE [YIL149C/MLP2]: the protein stability index came out at 2.95 ± 0.12 (doa10∆), 2.66 ± 0.11 (pdr5∆), 3.17 ± 0.14 (san1∆) and 3.27 ± 0.15 (ubr1∆).

For VLKFTFTGEKPIITGST [MED8], the protein stability index is, setting by setting: (doa10∆) 2.01 ± 0.082; (pdr5∆) 2.18 ± 0.074; (san1∆) 2.04 ± 0.12; (ubr1∆) 2.07 ± 0.062.

LKKLEKFMELERKTLER [SWI3] registered a protein stability index (doa10∆) of 2.95 ± 0.061, a protein stability index (pdr5∆) of 2.84 ± 0.069, a protein stability index (san1∆) of 3.18 ± 0.046 and a protein stability index (ubr1∆) of 2.66 ± 0.058.

Consider ITGNKIMRILKSNGLAP [RPS13], for which the protein stability index is, setting by setting: (doa10∆) 3.01 ± 0.14; (pdr5∆) 3.32 ± 0.18; (san1∆) 2.53 ± 0.16; (ubr1∆) 2.91 ± 0.057.

For the sequence TIETFNEAALVVNITHH [RPB5], the protein stability index by setting is: (doa10∆) 1.69 ± 0.11; (pdr5∆) 1.92 ± 0.061; (san1∆) 1.64 ± 0.16; (ubr1∆) 1.58 ± 0.13.

LTADYDALDIANRIGYI [RPL25]: the protein stability index by setting is: (doa10∆) 3.33 ± 0.045; (pdr5∆) 3.4 ± 0.062; (san1∆) 3.54 ± 0.038; (ubr1∆) 3.43 ± 0.052.

Take TDPKELYNNAHVYARDL [RPC40]: the protein stability index by setting is: (doa10∆) 3.51 ± 0.23; (pdr5∆) 2.94 ± 0.11; (san1∆) 2.93 ± 0.13.

Regarding ALNMLPSEILHLILDKL [GRR1], the protein stability index runs as follows: (doa10∆) 2.37 ± 0.13; (pdr5∆) 2.07 ± 0.073; (san1∆) 1.95 ± 0.13; (ubr1∆) 2.03 ± 0.045.

For DSVFSFGPKKENRKKDE [YLR335W/NUP2], the protein stability index was 3.01 ± 0.091 (doa10∆), 2.86 ± 0.078 (pdr5∆), 2.9 ± 0.048 (san1∆) and 3.03 ± 0.056 (ubr1∆).

Take NSITSGGLKSCDLDFPL [YDL116W/NUP84]: the protein stability index (doa10∆) worked out at 2.78 ± 0.078, the protein stability index (pdr5∆) is 3.11 ± 0.068, the protein stability index (san1∆) is 3.32 ± 0.072 and the protein stability index (ubr1∆) was 3.2 ± 0.063.

Regarding PKDFSPNFTGIDKLMLS [SSN2], the protein stability index was determined as 1.42 ± 0.17 (doa10∆), 1.38 ± 0.15 (pdr5∆), 1.85 ± 0.27 (san1∆) and 1.26 ± 0.11 (ubr1∆).

Take NPSVKQGEVGAVFIVPK [SWP82]: the protein stability index worked out at 3.23 ± 0.26 (doa10∆), 3.23 ± 0.15 (pdr5∆) and 3.28 ± 0.12 (san1∆).
